Experiments:
[1] = target: T1, hiR2-FL-L539A-T7 (human iRhom2 full length L539A, 3 x T7 tag) (human, UniProt Q6PJF5 1-856); assay: FACS on cells of the row L539A
T1 sequence: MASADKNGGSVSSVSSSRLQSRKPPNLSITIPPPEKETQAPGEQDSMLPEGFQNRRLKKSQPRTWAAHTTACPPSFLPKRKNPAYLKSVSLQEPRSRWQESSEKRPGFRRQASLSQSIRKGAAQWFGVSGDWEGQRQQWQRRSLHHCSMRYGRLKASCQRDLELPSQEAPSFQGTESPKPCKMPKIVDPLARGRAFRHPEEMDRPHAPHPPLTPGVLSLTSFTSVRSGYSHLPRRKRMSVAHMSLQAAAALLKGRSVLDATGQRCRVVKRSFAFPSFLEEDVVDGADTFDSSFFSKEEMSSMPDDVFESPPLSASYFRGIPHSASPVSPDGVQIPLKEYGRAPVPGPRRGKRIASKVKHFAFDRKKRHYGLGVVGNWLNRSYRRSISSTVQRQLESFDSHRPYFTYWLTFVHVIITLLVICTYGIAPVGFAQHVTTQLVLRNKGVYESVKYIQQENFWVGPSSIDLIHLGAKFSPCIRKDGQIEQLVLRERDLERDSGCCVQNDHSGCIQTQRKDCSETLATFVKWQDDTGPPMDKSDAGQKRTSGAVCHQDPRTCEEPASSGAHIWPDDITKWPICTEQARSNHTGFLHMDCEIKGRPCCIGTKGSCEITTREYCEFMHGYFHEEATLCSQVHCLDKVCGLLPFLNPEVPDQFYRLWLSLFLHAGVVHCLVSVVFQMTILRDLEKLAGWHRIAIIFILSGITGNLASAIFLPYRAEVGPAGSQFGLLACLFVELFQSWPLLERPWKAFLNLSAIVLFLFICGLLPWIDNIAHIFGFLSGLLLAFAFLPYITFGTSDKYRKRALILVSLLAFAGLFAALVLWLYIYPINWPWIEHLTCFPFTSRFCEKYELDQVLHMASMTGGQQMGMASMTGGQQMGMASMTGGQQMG

[2] = target: T1, hiR2-FL-L539A-T7 (human iRhom2 full …); assay: FACS on cells of the row L539A, vs human iR2 wild type = 100%
Description: In brief, immortalized MEF-DKO-hiR2-FL-G498A-T7, MEF-DKO-hiR2-FL-Q502R-T7, MEF-DKO-hiR2-FL-I509V-T7, MEF-DKO-hiR2-FL-Q512S-T7, MEF-DKO-hiR2-FL-R513E-T7, MEF-DKO-hiR2-FL-K514E-T7, MEF-DKO-hiR2-FL-D515E-T7, MEF-DKO-hiR2-FL-E518S-T7, MEF-DKO-hiR2-FL-T522V-T7, MEF-DKO-hiR2-FL-F523W-T7, MEF-DKO-hiR2-FL-Q527P-T7, MEF-DKO-hiR2-FL-D528I-T7, MEF-DKO-hiR2-FL-D529H-T7, MEF-DKO-hiR2-FL-T530P-T7, MEF-DKO-hiR2-FL-G531S-T7, MEF-DKO-hiR2-FL-P532A-T7, MEF-DKO-hiR2-FL-M534-T7, MEF-DKO-hiR2-FL-D535-T7, MEF-DKO-hiR2-FL-K536-T7, MEF-DKO-hiR2-FL-S537E-T7, MEF-DKO-hiR2-FL-D538L-T7, MEF-DKO-hiR2-FL-L539A-T7, MEF-DKO-hiR2-FL-Q541H-T7, MEF-DKO-hiR2-FL-T544Q-T7, MEF-DKO-hiR2-FL-S545F-T7, MEF-DKO-hiR2-FL-A547S-T7, MEF-DKO-hiR2-FL-T555V-T7, MEF-DKO-hiR2-FL-E557D-T7, MEF-DKO-hiR2-FL-A560S-T7 and MEF-DKO-hiR2-FL-S562E-T7 cells were harvested with 10 mM EDTA in PBS, washed and resuspended in FACS buffer (PBS, 3% FBS, 0.05% sodium azide), and seeded in Nunc U-bottom 96-well plates (Thermo Fisher Scientific, USA) at approximately 3×10⁵ cells per well. To pellet cells and remove supernatants, the plates were centrifuged at 1,500 rpm and 4° C. for 3 minutes. For primary staining, cells were resuspended in 100 μl per well of either FACS buffer alone (controls) or the purified antibodies 3, 5, 16, 22, 34, 42, 43, 44, 48, and 50 of the present disclosure at 3 μg/ml in FACS buffer and incubated on ice for 1 hour. Afterwards, plates were centrifuged at 1,500 rpm and 4° C. for 3 minutes and washed twice with 200 μl per well of FACS buffer. For secondary staining, cells were spun down and resuspended in 100 μl per well of PE-conjugated goat anti-mouse IgG F(ab′)2 detection fragment (Dianova, Germany) diluted 1:100 in FACS buffer. Protected from light, the cell suspensions were incubated on ice for 1 hour. Plates were then centrifuged at 1,500 rpm and 4° C. for 3 minutes and washed three times with 200 μl per well of FACS buffer. Finally, cells were resuspended in 150 μl per well of FACS buffer and analyzed using a BD Accuri™ C6 Plus flow cytometer (Becton Dickinson, Germany).

B1: antibody 43 (antibody, V domains shown)
VH: QVALKESGPGILQPSQTLSLTCSFSGFSLSTFGMGVGWIRQSSGKGLEWLANIWWDDDKYYNPALKSRLTISKDASKNQAFLKIANVDTADTATYYCARIGNYGSNYWYFDVWGTGTTVTVSS
VL: QIVLTQSPAIMSASPGERVTMTCSANSRISYMYWYQQKPGSSPRLLIYDTSNLASGVPVRFSGSGSGTSYSLTISRMEAEDAATYNCQQWSSYPLTFGAGTKLELK
notes: Mouse IgG, kappa light chain; also called clone #43
[1]
  binding result: no binding (tested: 3 µg/ml)
[2]
  grade of loss of binding vs wild type: 3 grade (3 => 95% loss of binding vs wild type)

B2: antibody 44 (antibody, V domains shown)
VH: QVTLKESGPGILQPSQTLSLTCSFSGFSLSTFGMGVGWIRQPSEKGLEWLAHIWWDDDKYYNPALKSRLTISKDTSKNQIFLKITNVDTAETATYYCSRIGNYGSNYWYFDVWGTGTTVTVSS
VL: QIVLTQSPAVMSASPGEKVTMTCTASSSVYYMYWYQQTPGSSPRLLIYDTSNLASGVPVRFSGSGSGTSYSLTISRMEAEDAATYYCQQWNTYPLTFGAGTKLELK
notes: Mouse IgG, kappa light chain; also called clone #44; m44
[1]
  binding result: no binding (tested: 3 µg/ml)
[2]
  grade of loss of binding vs wild type: 3 grade (3 => 95% loss of binding vs wild type)

B3: antibody 42 (antibody, V domains shown)
VH: QVTLKESGPGILQPSQTLSLTCSLSGFSLSTFGRGVGWIRQPSGKGLEWLAHIWWDDEKYYNPALKSRLTISKDTSKNQVFLRIANVDTADTATYYCARIQNYGSNYWYFDVWGTGTTVTVSS
VL: LIVLTQSPAIMSASPGEKVTMTCGATSRISYMFWYQQKPGSSPRVLIYDTSNLASGVPVRFSGSGSGTSYSLTISRVEAEDVATYYCQQWNSYPLTFGAGTKLELK
notes: Mouse IgG, kappa light chain; also called clone #42; m42
[1]
  binding result: no binding (tested: 3 µg/ml)
[2]
  grade of loss of binding vs wild type: 3 grade (3 => 95% loss of binding vs wild type)

B4: antibody 5 (antibody, V domains shown)
VH: QVTLKESGPGILQPSQTLSLTCSFSGFSLSTFGMGVGWIRQPSGKGLEWLAHIWWDDEKYYNSALKSRLTISKATSKNQAFLKIANVDTADTATYYCARISNYGSNYWYFNVWGTGTTVTVSS
VL: QVVLTQSPALMSASPGEKVTMTCSAGSSVSCMYWYQQKPGSSPRVLIYDTSNLASGVPARFTGSGSGTSYSLTISRMEAEDAASYYCQQWNSYPLTFGAGTKLELK
notes: Mouse IgG, kappa light chain; also called clone #5; purified antibody 5
[1]
  binding result: no binding (tested: 3 µg/ml)
[2]
  grade of loss of binding vs wild type: 3 grade (3 => 95% loss of binding vs wild type)

B5: antibody 22 (antibody, V domains shown)
VH: QVTLKESGPGILQPSQTLSLTCSFSGFSLSTFGMGVGWIRQPSGKGLEWLAHIWWDDEKYYNSALKSRLTISKATSKNQVFLKIANVDTADTATYYCARISNYGSNYWYFNVWGTGTTVTVSS
VL: QVVLTQSPALMSASPGEKVTMTCSAGSSVSYMYWYQQKPGSSPRVLIYDTSNLASGVPARFTGSGSGTSYSLTISRMEAEDAATYYCQQWNSYPLTFGAGTKLELK
notes: Mouse IgG, kappa light chain; also called clone #22; m22
[1]
  binding result: no binding (tested: 3 µg/ml)
[2]
  grade of loss of binding vs wild type: 3 grade (3 => 95% loss of binding vs wild type)

B6: antibody 3 (antibody, V domains shown)
VH: QVTLKESGPGILQPSQTLSLTCSFSGFSLTTFAMGIGWVRQPSGKGLEWLAHIWWDGEKYNNPVLKSRLTISKDTSKNQVFLRIANVDTPDTATYYCARISSIYYIIDNWGQGTSVTVSS
VL: DIVLTQSPATLSVTPGHSVSLSCRASQSISNNLHWYQKKSHESPRLLIKYVSQSISGIPSRFSGSGSGTDFTLSINSVETEDFGMYFCQQSYNWPLTFGAGTKLELK
notes: Mouse IgG, kappa light chain; also called clone #3; purified antibody 3
[1]
  binding result: no binding (tested: 3 µg/ml)
[2]
  grade of loss of binding vs wild type: 3 grade (3 => 95% loss of binding vs wild type)

B7: antibody 34 (antibody, V domains shown)
VH: QVTLKESGPGILQPSQTLSLTCSFSGFSLSTFSLGVGWIRQSSGKGLEWLAHIWWDDEKYYNPALKSRLTISKDTSKNQVFLKIANVDAADTATYYCARAYYSKSYYALDYWGQGTSVTVSS
VL: DIQMTQSPSSLSASLGERVSLTCRASQEISGYLSWLQQKPDGTIKRLIYAASTLDSGVPKRFSGSRSGSDYSLAISSLESEDFADYYCLQYANFPFTFGSGTKLEIK
notes: Mouse IgG, kappa light chain; also called clone #34; m34
[1]
  binding result: no binding (tested: 3 µg/ml)
[2]
  grade of loss of binding vs wild type: 3 grade (3 => 95% loss of binding vs wild type)

Reference: US20240174744A1 (SCIRHOM, published 2024)
